Data reported in patent publication US20250270584A1 (University of California, published 2025).
One block for each binder: values may come before it.

Tests used:
CaM7 (calmodulin 7) = molecular target: T1, CaM7 (calmodulin 7) (Arabidopsis thaliana, UniProt P59220 1-149); experiment: IP-MS, anti-Flag IP of GLR3.3-3Flag from leaves of transgenic plants; co-enrichment, may be indirect
T1 construct: also called AT3G43810; pBudCE4.1-EF-1α-CaM7

3Flag-CaM7 = molecular target: T2, 3Flag-CaM7 (Arabidopsis thaliana, UniProt P59220 1-149); experiment: Co-IP with anti-GFP agarose from transgenic plants expressing GLR3.3-EGFP and 3Flag-CaM7
T2 construct: also called p35S::Flag-CaM7

GST-CaM7 = molecular target: T3, GST-CaM7 (Arabidopsis thaliana, UniProt P59220 1-149); experiment: pull-down with CTD deletion variants
T3 construct: also called pGEX-CaM7

binding result (CaM7 (calmodulin 7)): binds
B1: GLR3.3-3Flag (receptor)
chain: EKPKVVKIGSIFSFDSVIGKVAKIAIDEAVKDVNSNPDILSGTKFSVSMQNSNCSGFMGMVEALRFMEKDIVGIIGPQCSVVAHMISHMANELRVPLLSFAVTDPVMSPLQFPYFIRTTQSDLYQMDAIASIVDFYGWKEVIAVFVDDDFGRNGVAALNDKLASRRLRITYKAGLHPDTAVNKNEIMNMLIKIMLLQPRIVVIHVYSELGFAVFKEAKYLGMMGNGYVWIATDWLSTNLDSSSPLPAERLETIQGVLVLRPHTPDSDFKREFFKRWRKMSGASLALNTYGLYAYDSVMLLARGLDKFFKDGGNISFSNHSMLNTLGKSGNLNLEAMTVFDGGEALLKDILGTRMVGLTGQLQFTPDRSRTRPAYDIINVAGTGVRQIGYWSNHSGLSTVLPELLYTKEKPNMSTSPKLKHVIWPGETFTKPRGWVFSNNGKELKIGVPLRVSYKEFVSQIRGTENMFKGFCIDVFTAAVNLLPYAVPVKFIPYGNGKENPSYTHMVEMITTGNFDGVVGDVAIVTNRTKIVDFTQPYAASGLVVVAPFKKLNSGAWAFLRPFNRLMWAVTGCCFLFVGIVVWILEHRTNDEFRGPPKRQCVTILWFSFSTMFFAHRENTVSTLGRLVLIIWLFVVLIINSSYTASLTSILTVQQLSSPIKGIESLRERDDPIGYQVGSFAESYLRNELNISESRLVPLGTPEAYAKALKDGPSKGGVAAIVDERPYVELFLSSNCAYRIVGQEFTKSGWGFAFPRDSPLAIDLSTAILELAENGDLQRIHDKWLMKNACTLENAELESDRLHLKSFWGLFLICGVACLLALFLYFVQIIRQLYKKPTDDAIARDQQQNHDSSSMRSTRLQRFLSLMDEKEESKHESKKRKIDGSMNDTSGSTRSRGFDRERSFNSVNPLD
notes: Bait of the IP-MS, expressed in the glr3.3/glr3.6 mutant background; also called p35S::GLR3.3-3Flag; not shown: C-terminal 3Flag tag of vector pCambia1300-3Flag

binding result (3Flag-CaM7): binds
B2: GLR3.3-EGFP (receptor)
chain: B1 chain
notes: Used in the Co-IP with anti-GFP magnetic agarose; also called pGLR3.3::GLR3.3-EGFP; not shown: EGFP fusion partner

binding result (GST-CaM7): no binding
B3: MBP-CD2 (other, not shown: large carriers)
chain: LYFVQIIRQLYKKPTDDAIARMDEKEESKHESKKRKIDGSMNDTSGSTRSRGFDRERSFNSVNPLD
notes: domain: CTD
